From patent publication US20250011422A1 (UNIVERSITY OF FLORIDA RESEARCH FOUNDATION, published 2025) come the findings set out here.

For assay [1], the target named is T1, recombinant human Siglec-6 human IgG1-Fc fusion protein (human, UniProt O43699 27-347).
T1 construct: range 27-347; The methods describe the in-house construct as the Siglec-6 ectodomain at the C-terminus of the Fc (Fc-Siglec-6); The text uses hS6-Fc, Siglec-6-Fc and Fc-Siglec-6 for the SPR and ELISA antigen without telling the orientations apart; also called hS6-Fc; Fc-hS6; not shown: human IgG1 Fc, aa 99-329
Nature of the assay: SPR, monovalent Fab on Siglec-6-Fc fusion protein. A general note: In SPR one partner is held on a chip, and binding of the other changes the refractive index at the surface.

Assay [2] deals with T2, Siglec-8 (Homo sapiens, UniProt Q9NYZ4).
T2 construct: Fc fusion protein; member of the siglec panel (group m8); also called human Siglec-8-Fc fusion protein
Nature of the assay: ELISA, siglec-Fc fusion protein coated directly, anti-human Fab detection, absorbance 405-570 nm.

Assay [3] deals with T3, Siglec-9 (Homo sapiens, UniProt Q9Y336).
T3 construct: Fc fusion protein; member of the siglec panel (group m8); also called human Siglec-9-Fc fusion protein
The assay is described as above.

The target of assay [4] is T4, Siglec-2 (CD22) (Homo sapiens, UniProt P20273).
T4 construct: Fc fusion protein; member of the siglec panel (group m8); also called human Siglec-2-Fc fusion protein
The assay is described as above.

For assay [5], the target named is human CD33 (Siglec-3) (human, UniProt P20138 18-259, limits assumed). Described as above.
Assay [6] concerns the target T5, CD3 on human T cells (human, UniProt P07766 23-207).
T5 construct: whole, on cells; CD3 is a complex; also called CD3+ cells
Nature of the assay: flow cytometry titration on primary human T cells, Alexa Fluor 647 anti-human Fc secondary antibody, percent biAb+ cells.
Protocol: (§1) To determine whether T-biAb format affected the affinity to Siglec-6 or CD3 on the cell surface, T-biAbs were titrated and used to stain cells for flow cytometry (FIG. 17a).
(§2) Flow cytometry: Fabs were used to stain cells at a concentration of 2 μg/mL, unless otherwise noted. […] Samples were analyzed on either an Accuri C6 Plus or a LSRII flow cytometer (both from BD Biosciences).

For assay [7], the target named is T6, human Siglec-6 on the cell surface (U937, MEC1-002, MEC1-hS6, primary CLL cells) (human, UniProt O43699 27-453). Briefly: cell-based or functional assay.
Assay [8] concerns the target T7, Siglec-6 VC28-235-His6 (human, UniProt O43699 28-235).
T7 construct: It was deglycosylated with PNGase F for HDX-MS; also called soluble Siglec-6 (aa 28-235-His6); Siglec-6 ectodomain fragment
Briefly: SPR, T-biAb immobilised via the Fc domain, soluble Siglec-6 (aa 28-235-His6) injected.
Protocol: (§3) Fab kinetics were determined by capturing Siglec-6-Fc (5-10 μg/mL) in HBS-EP+ buffer (Cytiva) and injecting titrated. […] Biacore evaluation software was used to calculate kₒₙ, koff, and Kd.

Assay [9] deals with T6, human Siglec-6 on the cell surface …. Nature of the assay: cell-based or functional assay. The source holds these as a separate data set.
For assay [10] the target is unchanged. Briefly: flow cytometry titration on MEC1-hS6 cells, apparent Kd; aDART-Fc format, RC-1 clone. On the technique in general: In flow cytometry, cells or beads pass a laser one at a time.
Protocol: as §1, §2
For assay [11] the target is unchanged. Nature of the assay: cell-based or functional assay. The source holds these as a separate data set.
The target is the same in assay [12]. Nature of the assay: flow cytometry titration on MEC1-hS6 cells, apparent Kd; scFv-Fc format, JML-1 clone.
Protocol: as §1, §2
Assay [13] shares this target. Briefly: cell-based or functional assay. The source holds these as a separate data set.
The target in assay [14] is T1, recombinant human Siglec-6 human …. Briefly: SPR, Siglec-6-Fc captured, soluble Fab injected.
Protocol: as §3
Assay [15] has the same target. Briefly: SPR, immobilized hS6-Fc, soluble Fab.
Protocol: as §3
In assay [16] the target is T6, human Siglec-6 on the cell surface …. Briefly: flow cytometry of whole PBMC with biotinylated JML-1 IgG1, normalised to an isotype control.
Protocol: as §2
The target in assay [17] is T8, rhesus macaque (Macaca mulatta) Siglec-6 Fc fusion protein (human; Macaca mulatta (rhesus macaque), UniProt A0A1D5QH63 16-333).
T8 construct: range 16-333; it is not the assay construct; also called rhesus Siglec-6; macaque Siglec-6; not shown: human IgG1 Fc, aa 99-329
Briefly: ELISA, siglec-Fc fusion protein coated directly (50 ng), anti-human F(ab')2-HRP detection, absorbance 405-570 nm.

In assay [18] the target is T3, Siglec-9. The assay is described as above.

Read-outs that look alike come from different tables or passages of the source.

T1 sequence (O43699 27-347 limits assumed): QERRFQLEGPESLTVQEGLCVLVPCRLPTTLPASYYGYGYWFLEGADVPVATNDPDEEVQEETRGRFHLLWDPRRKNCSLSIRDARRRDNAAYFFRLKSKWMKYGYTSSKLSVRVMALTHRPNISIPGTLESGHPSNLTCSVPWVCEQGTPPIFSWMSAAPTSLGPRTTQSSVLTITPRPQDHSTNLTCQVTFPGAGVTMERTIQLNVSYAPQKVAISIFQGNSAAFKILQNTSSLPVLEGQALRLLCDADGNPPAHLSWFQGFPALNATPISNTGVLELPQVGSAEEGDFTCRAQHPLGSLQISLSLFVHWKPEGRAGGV
T5 sequence (P07766 23-207): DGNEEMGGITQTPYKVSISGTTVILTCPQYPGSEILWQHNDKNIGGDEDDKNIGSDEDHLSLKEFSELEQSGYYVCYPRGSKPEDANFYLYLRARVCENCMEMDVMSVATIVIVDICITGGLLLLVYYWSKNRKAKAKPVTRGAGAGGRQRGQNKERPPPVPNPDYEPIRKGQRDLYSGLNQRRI
T6 sequence (O43699 27-453): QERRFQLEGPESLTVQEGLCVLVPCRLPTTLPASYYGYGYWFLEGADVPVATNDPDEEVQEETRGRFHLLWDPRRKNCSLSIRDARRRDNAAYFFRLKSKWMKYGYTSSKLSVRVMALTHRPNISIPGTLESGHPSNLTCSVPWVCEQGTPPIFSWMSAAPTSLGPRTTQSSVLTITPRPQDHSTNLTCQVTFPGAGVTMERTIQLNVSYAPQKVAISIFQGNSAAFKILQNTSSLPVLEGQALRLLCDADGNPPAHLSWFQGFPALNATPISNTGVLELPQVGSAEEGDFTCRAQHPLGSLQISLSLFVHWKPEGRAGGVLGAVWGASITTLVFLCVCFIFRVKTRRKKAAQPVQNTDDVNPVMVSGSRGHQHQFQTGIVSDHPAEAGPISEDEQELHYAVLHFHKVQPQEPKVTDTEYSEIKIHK
T7 sequence (O43699 other isoform, or with tags, fused parts or gaps limits assumed): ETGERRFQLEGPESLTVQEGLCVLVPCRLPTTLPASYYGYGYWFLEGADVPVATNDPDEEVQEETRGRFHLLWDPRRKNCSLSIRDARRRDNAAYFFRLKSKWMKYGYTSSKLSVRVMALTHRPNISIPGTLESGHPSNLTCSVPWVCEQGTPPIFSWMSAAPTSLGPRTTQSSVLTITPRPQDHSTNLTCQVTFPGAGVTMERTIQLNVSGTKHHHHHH
Chain of human CD33 (Siglec-3) (P20138 18-259 limits assumed): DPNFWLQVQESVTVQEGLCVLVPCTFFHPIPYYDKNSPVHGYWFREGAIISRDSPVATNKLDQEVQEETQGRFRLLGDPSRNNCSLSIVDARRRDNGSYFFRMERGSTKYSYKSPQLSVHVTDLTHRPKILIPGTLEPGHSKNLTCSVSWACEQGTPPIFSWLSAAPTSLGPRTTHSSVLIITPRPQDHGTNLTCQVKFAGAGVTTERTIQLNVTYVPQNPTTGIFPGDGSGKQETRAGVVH
T2 sequence (Q9NYZ4 17-363 limits assumed): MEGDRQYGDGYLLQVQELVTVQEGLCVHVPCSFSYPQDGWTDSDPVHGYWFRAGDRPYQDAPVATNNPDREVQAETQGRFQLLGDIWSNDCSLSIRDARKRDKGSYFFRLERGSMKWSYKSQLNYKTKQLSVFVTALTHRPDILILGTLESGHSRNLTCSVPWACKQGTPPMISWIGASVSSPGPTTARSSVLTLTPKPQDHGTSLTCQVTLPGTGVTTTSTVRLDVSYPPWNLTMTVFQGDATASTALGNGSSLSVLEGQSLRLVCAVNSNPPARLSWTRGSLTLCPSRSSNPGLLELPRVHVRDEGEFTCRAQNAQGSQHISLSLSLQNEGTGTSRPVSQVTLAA
T3 sequence (Q9Y336 18-348 limits assumed): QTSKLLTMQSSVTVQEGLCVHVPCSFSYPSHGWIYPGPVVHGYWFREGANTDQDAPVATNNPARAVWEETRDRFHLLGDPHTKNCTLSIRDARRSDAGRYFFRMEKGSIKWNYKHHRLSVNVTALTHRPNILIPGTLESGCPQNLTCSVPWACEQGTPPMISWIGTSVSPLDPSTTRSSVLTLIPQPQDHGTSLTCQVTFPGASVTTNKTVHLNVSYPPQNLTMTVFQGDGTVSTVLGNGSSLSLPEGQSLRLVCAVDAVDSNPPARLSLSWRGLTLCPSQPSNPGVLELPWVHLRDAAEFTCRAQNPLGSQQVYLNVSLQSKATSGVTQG
T8 sequence (A0A1D5QH63 entry or part of it): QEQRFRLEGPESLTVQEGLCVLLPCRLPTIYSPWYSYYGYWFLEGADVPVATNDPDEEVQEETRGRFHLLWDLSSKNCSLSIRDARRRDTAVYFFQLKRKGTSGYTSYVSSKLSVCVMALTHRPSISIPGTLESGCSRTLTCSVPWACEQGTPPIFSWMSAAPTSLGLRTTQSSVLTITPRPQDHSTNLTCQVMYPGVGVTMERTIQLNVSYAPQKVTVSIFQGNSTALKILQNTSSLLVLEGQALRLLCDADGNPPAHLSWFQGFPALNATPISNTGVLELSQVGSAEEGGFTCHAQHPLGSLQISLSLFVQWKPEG

B1: ARN-1 Fab (Fab, V domains shown)
VH: EVQLVQSGGGVVQPGRSLTLSCAAFGFTFSTYTMHWVRQAPGKGLEWVAVISYDEGFKYYADSVKGRFTISRDISKNTLYLQMNSLRTEDTAVYYCAREASAFDIWGQGTMVTVSS
VL: SYVLTQPPLVSVSPGQTARITCSGENWGQKYASWYQQKPGQSPMLIIYEDTKRPSEIPERFSGSNSGSTVTLTISGTQPMDEADYYCQAWDDSTGGVFGTGTKVTVL
notes: Human Fab from a naive human Fab library
For orientation: koff means the rate constant with which the complex falls apart. One may read the kon as the second-order rate constant of association. B1: the Kd in assay [1] was 2.63 nM. Moreover, the koff in assay [1] turned out to be 0.000268 s⁻¹. Moreover, in [1], the on-rate constant (kon) came to 100000 M⁻¹ s⁻¹. Moreover, the binding result in [2], in [3], in assay [4] and in assay [5] was “no binding (tested: 75 ng Fab per well)” throughout.

B2: V9/RC-1 sDART-Fc (bispecific antibody)
chain 1: DIQMTQSPSSLSASVGDRVTITCRASQDIRNYLNWYQQKPGKAPKLLIYYTSRLESGVPSRFSGSGSGTDYTLTISSLQPEDFATYYCQQGNTLPWTFGQGTKVEIKGGGSGGGGEVQLVESGGGLVQPGRSLRLSCAASGFTFSSYGMHWVRQAPGKGLEWVAVISYDGSNKYYADSVKGRFTISRDNSKNTLYLQMNSLRAEDTAVYYCANYGMDVWGKGTTVTVSSGCPPCPAPEAAGGPSVFLFPPKPKDTLMISRTPEVTCVVVDVSHEDPEVKFNWYVDGVEVHNAKTKPREEQYNSTYRVVSVLTVLHQDWLNGKEYKCKVSNKALGAPIEKTISKAKGQPREPQVCTLPPSRDELTKNQVSLSCAVKGFYPSDIAVEWESNGQPENNYKTTPPVLDSDGSFFLVSKLTVDKSRWQQGNVFSCSVMHEALHNRFTQKSLSLSPGA
chain 2: not shown
notes: Two-chain symmetric DART-Fc
The EC50 (read off the curve) is the concentration giving half of the maximal effect. Read a low EC50 (read off the curve) as an effect from little substance. In the case of B2, the concentration giving a half-maximal response (EC50 (read off the curve)) in assay [6] is approximately 0.3 nM. For the same molecule, the “EC50, lysis of MEC1-hS6 cells by human T cells (E:T 1:1, luciferase)” value in [7] is 0.00069 nM. In assay [8], the Kd is 0.07 nM, the koff amounted to 0.0003 s⁻¹ and the kon is 4.14e+06 M⁻¹ s⁻¹.

B3: RC-1/V9 aDART-Fc (bispecific antibody)
chain 1: not shown
chain 2: DIQMTQSPSSLSASVGDRVTITCRASQDIRNYLNWYQQKPGKAPKLLIYYTSRLESGVPSRFSGSGSGTDYTLTISSLQPEDFATYYCQQGNTLPWTFGQGTKVEIKGGGGSGGGGEVQLVESGGGLVQPGRSLRLSCAASGFTFSSYGMHWVRQAPGKGLEWVAVISYDGSNKYYADSVKGRFTISRDNSKNTLYLQMNSLRAEDTAVYYCANYGMDVWGKGTTVTVSSASTKGKVAACKEKVAALKEKVAALKEKVAALKE
chain 3: DKTHTCPPCPAPEAAGGPSVFLFPPKPKDTLMISRTPEVTCVVVDVSHEDPEVKFNWYVDGVEVHNAKTKPREEQYNSTYRVVSVLTVLHQDWLNGKEYKCKVSNKALGAPIEKTISKAKGQPREPQVCTLPPSRDELTKNQVSLSCAVKGFYPSDIAVEWESNGQPENNYKTTPPVLDSDGSFFLVSKLTVDKSRWQQGNVFSCSVMHEALHNRFTQKSLSLSPGA
notes: Three-chain asymmetric DART-Fc; Chain 1 is RC-1vk-G3SG4-V9vh-ASTK-E-coil-G3-Fc knobs, chain 2 is V9vk-G4SG4-RC-1vh-ASTK-K-coil, and chain 3 is Fc holes; also called Siglec-6xCD3 T-biAb in aDART-Fc format
Regarding B3, in assay [9], the “EC50 (read off the curve), NFAT reporter activation with MEC1-002 cells” value is approximately 0.04 nM. Besides, the Kd in [10] stood at 0.79 nM. For the same molecule, in [11], the “directed T cell lysis of CLL cell lines, EC50” value was 0.00012 nM; the “fold increase in lysis potency compared to RC-1/V9 scFv-Fc” value worked out at 25 fold; the “fold lower lysis EC50 than CD19/V9 scFv-Fc (MEC1-002, E:T 1:30, 48 h)” value was approximately 3 fold; the “fold lower lysis EC50 than RC-1/V9 scFv-Fc (MEC1-002, E:T 1:30, 48 h)” value is more than 10 fold. In [11], the “specific lysis of MEC1-002 cells at E:T 1:30, EC50” value worked out at 0.0011 nM and the “specific lysis of primary CLL cells by autologous T cells, day 11, median” value was determined as 24.9%. Further, the “EC50 (read off the curve)” value in assay [6] is approximately 0.1 nM. In addition, in assay [8], the Kd stood at 0.15 nM, the dissociation rate constant (koff) came to 0.00045 s⁻¹ and the kon came to 2.96e+06 M⁻¹ s⁻¹.

B4: JML-1/V9 scFv-Fc (bispecific antibody)
chain 1: not shown
chain 2: EVQLVESGGGLVQPGGSLRLSCAASGYSFTGYTMNWVRQAPGKGLEWVALINPYKGVSTYNQKFKDRFTISVDKSKNTAYLQMNSLRAEDTAVYYCARSGYYGDSDWYFDVWGQGTLVTVSSGGGGSGGGGSGGGGSDIQMTQSPSSLSASVGDRVTITCRASQDIRNYLNWYQQKPGKAPKLLIYYTSRLESGVPSRFSGSGSGTDYTLTISSLQPEDFATYYCQQGNTLPWTFGQGTKVEIKEPKSSDKTHTCPPCPAPELLGGPSVFLFPPKPKDTLMISRTPEVTCVVVDVSHEDPEVKFNWYVDGVEVHNAKTKPREEQYASTYRVVSVLTVLHQDWLNGKEYKCKVSNKALPAPIEKTISKAKGQPREPQVCTLPPSRDELTKNQVSLSCAVKGFYPSDIAVEWESNGQPENNYKTTPPVLDSDGSFFLVSKLTVDKSRWQQGNVFSCSVMHEALHNHYTQKSLSLSPGA
notes: Knobs-into-holes heterodimer of the JML-1 scFv-Fc knob arm and the shared anti-CD3 V9 scFv-Fc hole arm; Both arms carry N297A; also called JML-1 clone T-biAb
As to B4, in assay [11], the “specific lysis of MEC1-hS6 by healthy donor T cells, EC50” value is 0.0024 nM and the “specific lysis of primary CLL cells by autologous T cells, day 11, median” value came out at 8.8%. The “EC50 (read off the curve)” value in [6] was approximately 0.07 nM. Besides, the Kd in assay [12] was found to be 0.61 nM. The “EC50 (read off the curve), NFAT reporter activation with MEC1-002 cells” value in assay [13] was approximately 0.08 nM.

B5: RC-2 Fab (Fab, V domains shown)
VH: EVQLLESGGGVVQPGRSLRLSCAASGFTFSSYGMHWVRQAPGKGLEWVAVISYDGSNKHYADSVKGRFTISRDNSKNTLYLQMNSLRAEDTAVYYCARGGQTIDIWGQGTMVTVSS
VL: not shown
notes: Human Fab (kappa), expressed in E. coli
For B5, the T1/2 in assay [14] amounted to 27 min. In addition, the Kd in assay [15] was 2.76 nM.

B6: JML-1 biotinylated IgG1 (antibody, V domains shown)
VH: KVQLLESGGGLVQPGRSLRLSCAASGFTFDDYGMHWVRQAPGKGLEWVSGISWNSGSIGYADSVKGRFTISRDNSKNTLYLQMNSLRAEDTAVYYCARGGQTIDIWGQGTMVTVSS
VL: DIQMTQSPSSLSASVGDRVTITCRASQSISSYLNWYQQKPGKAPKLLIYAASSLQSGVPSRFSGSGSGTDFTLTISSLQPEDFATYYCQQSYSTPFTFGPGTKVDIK
modifications: Biotinylated IgG1; the biotin sites are not stated and are not carried in the letters.
For B6, in assay [16], the binding result is listed as “binds”.

B7: RC-1 Fab (Fab, V domains shown)
VH: EVQLVESGGGLVQPGRSLRLSCAASGFTFSSYGMHWVRQAPGKGLEWVAVISYDGSNKYYADSVKGRFTISRDNSKNTLYLQMNSLRAEDTAVYYCANYGMDVWGKGTTVTVSS
VL: not shown
notes: Human Fab (kappa) from the post-alloHSCT phage library, expressed in E. coli
B7: the T1/2 in [14] came to 37 min. Also, the binding result in assay [17], in assay [18], in assay [2], in assay [4] and in assay [5] was “no binding (tested: 75 ng Fab per well)” each time. Besides, the Kd in [15] was 0.49 nM.
